Changes are numbered by the printed parent chain. In names and notes the source's numbering stands.
T1: cynomolgus monkey ENPP3 (cynomolgus monkey, UniProt A0A2K5TKP4 46-874)
T1 construct: also called cyno ENPP3
T1 sequence: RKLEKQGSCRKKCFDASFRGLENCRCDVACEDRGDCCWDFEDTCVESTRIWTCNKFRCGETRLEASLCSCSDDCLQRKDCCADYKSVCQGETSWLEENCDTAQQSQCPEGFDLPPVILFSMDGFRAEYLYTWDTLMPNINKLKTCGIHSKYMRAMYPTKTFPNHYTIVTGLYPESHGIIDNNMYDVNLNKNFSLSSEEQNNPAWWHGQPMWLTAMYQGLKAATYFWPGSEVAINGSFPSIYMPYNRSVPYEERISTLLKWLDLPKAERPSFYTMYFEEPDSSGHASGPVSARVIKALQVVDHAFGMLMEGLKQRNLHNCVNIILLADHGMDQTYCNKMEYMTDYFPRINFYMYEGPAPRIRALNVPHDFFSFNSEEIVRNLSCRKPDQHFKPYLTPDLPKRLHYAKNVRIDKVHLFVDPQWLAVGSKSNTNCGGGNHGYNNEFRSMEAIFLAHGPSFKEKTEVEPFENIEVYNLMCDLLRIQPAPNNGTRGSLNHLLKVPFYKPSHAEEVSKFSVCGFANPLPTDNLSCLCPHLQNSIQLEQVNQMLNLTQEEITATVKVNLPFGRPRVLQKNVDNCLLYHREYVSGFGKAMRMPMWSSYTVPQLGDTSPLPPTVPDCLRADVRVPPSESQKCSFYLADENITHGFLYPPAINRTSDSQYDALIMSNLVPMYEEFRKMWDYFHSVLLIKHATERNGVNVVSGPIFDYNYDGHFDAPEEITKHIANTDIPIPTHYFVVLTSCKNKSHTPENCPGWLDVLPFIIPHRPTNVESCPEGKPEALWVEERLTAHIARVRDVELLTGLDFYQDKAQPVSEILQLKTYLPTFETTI

T2: human ENPP3 (human, UniProt O14638 46-875, limits assumed)
T2 construct: neither the construct nor the method is stated; also called ectonucleotide pyrophosphatase/phosphodiesterase family member 3
T2 sequence (looked up): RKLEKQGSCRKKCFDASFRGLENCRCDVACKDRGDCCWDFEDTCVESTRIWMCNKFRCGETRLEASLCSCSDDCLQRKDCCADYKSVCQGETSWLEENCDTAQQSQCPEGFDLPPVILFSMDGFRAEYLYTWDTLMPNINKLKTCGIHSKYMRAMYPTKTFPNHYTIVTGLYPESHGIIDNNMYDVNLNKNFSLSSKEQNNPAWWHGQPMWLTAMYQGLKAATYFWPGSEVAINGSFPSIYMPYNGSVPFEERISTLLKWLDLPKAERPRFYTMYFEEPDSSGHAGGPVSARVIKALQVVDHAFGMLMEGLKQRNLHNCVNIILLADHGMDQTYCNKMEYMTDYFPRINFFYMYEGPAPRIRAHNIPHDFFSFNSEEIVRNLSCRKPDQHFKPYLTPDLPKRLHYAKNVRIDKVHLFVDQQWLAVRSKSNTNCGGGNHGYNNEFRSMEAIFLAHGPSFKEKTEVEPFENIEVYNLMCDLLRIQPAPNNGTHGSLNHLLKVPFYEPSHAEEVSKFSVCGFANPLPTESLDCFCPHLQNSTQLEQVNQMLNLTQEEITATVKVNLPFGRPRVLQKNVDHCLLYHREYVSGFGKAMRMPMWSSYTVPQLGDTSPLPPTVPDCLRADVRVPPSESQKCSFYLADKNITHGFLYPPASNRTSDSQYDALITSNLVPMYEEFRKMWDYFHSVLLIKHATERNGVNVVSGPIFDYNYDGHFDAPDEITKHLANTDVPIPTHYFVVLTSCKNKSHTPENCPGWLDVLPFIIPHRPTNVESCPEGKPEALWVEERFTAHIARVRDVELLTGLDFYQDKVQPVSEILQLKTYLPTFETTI

T3: human ENPP3 on cells (human, UniProt O14638 1-875)
T3 construct: whole, on cells; also called ENPP3 on A704, VMRCRCW, HepG2, TUHR4TKB, TUHR10TKB; CHO-K1 ENPP3 OE
T3 sequence (looked up): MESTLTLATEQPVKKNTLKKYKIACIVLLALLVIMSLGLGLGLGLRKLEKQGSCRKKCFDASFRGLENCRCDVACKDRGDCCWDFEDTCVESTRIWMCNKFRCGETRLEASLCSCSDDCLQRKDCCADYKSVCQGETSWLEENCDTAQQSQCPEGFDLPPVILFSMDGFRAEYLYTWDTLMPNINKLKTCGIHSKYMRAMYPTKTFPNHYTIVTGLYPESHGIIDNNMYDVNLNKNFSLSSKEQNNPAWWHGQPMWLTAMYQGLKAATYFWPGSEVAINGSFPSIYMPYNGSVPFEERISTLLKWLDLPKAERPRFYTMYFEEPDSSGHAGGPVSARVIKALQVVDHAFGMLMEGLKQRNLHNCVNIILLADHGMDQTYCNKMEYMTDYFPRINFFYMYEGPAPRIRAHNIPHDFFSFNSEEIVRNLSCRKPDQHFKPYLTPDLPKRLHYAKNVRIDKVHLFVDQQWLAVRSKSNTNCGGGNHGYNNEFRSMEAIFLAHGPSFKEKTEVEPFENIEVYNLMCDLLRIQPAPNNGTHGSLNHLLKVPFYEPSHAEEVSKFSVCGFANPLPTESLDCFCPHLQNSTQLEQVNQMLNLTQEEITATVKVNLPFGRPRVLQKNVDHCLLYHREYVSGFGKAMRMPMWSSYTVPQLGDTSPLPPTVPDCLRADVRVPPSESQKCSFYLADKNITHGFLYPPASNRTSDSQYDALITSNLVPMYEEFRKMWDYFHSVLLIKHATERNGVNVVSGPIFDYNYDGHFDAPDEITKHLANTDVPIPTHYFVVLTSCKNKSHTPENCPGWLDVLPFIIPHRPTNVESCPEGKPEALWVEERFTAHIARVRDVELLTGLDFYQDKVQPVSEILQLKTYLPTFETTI

T4: ENPP1 on CHOK1 cells (UniProt P22413 1-925, limits assumed)
T4 construct: whole, on cells; also called ectonucleotide pyrophosphatase/phosphodiesterase family member 1; CHO ENPP1 OE
T4 sequence (looked up): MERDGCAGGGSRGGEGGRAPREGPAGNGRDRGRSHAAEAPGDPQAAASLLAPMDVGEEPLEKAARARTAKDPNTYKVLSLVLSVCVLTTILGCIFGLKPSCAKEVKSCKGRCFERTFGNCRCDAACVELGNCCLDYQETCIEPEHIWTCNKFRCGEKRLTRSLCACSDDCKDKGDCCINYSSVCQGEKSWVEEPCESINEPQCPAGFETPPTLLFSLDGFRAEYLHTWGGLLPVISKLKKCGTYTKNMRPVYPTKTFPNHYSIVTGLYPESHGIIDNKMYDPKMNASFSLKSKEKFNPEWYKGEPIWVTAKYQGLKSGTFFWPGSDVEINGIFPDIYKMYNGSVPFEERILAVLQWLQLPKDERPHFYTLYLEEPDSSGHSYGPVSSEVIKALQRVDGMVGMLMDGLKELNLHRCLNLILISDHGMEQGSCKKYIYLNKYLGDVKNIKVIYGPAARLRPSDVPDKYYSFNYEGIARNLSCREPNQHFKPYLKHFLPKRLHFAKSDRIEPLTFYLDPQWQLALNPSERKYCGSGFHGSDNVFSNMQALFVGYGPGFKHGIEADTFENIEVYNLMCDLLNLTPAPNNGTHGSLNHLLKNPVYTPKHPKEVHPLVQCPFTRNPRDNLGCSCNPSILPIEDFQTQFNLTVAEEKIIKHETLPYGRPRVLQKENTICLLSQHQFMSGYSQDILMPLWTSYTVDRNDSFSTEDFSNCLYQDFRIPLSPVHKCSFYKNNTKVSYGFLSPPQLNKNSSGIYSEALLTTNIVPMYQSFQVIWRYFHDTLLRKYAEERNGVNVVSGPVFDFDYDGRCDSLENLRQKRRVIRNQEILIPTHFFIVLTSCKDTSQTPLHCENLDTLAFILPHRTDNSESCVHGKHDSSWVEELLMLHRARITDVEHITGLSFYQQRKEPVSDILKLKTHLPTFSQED

B1: NPP3B86 (antibody, V domains shown)
VH: QVQLVQSGAEVKKPGASVKVSCKASGYTVTNYYIFWVRQAPGQGLEWMGWINPNSGGTNYAQKFQGRVTMTRDTSINTAYMKLSRLGSDDTAVYYCARGGYSGYALSSHYGMDVWGQGTMVTVSS
VL: EIVLTQSPGTLSLSPGERATLSCRASQSVSSSYLAWYQQKPGQAPRLLIYDASSRATGIPDRFSGSGSGTDFTLIISRLEPEDFAVYYCQQYDSSPLTFGGGTKVEIK
notes: mAb from Ablexis Kappa mice
B2: NPP3B194 (bispecific antibody, IgG1)
VH: EVQLVESGGGRVKPGGSLRLSCAASGFTFSDYSMNWVRQAPGKGLEWVSSISSISSYVKYADSVKGRFTMSRDNAKNSLFLQMNSLRDEDMAVYYCARGHYFDYWGQGTLVTVSS
VL: EIVMTQSPATLSVSPGERATLSCRASQSVSSNLAWYQQKPGLAPRLLIYGASTRATGIPARFSGSGSGTEFTLTISSLQSEDFAVYYCQQYNNWPRTFGQGTKVEIK
scFv: EIVLTQSPATLSASPGERVTLSCSASSSVSYMNWYQQKPGQAPRRWIYDSSKLASGVPARFSGSGSGRDYTLTISSLEPEDFAVYYCQQWSRNPPTFGGGTKVEIKGGSEGKSSGSGSESKSTGGSQVQLVQSGAEVKKPGSSVKVSCKASGYTFTRSTMHWVKQAPGQGLEWIGYINPSSAYTNYNQKFQGRVTLTADKSTSTAYMELSSLRSEDTAVYYCASPQVHYDYAGFPYWGQGTLVTVSS
notes: ENPP3 Fab as VH1-CH1-hinge-CH2-CH3 IgG1 with hole T366S, L368A, Y407V and VL1-CL; scFv in VL-linker-VH-Fc orientation; also called unstapled (scFv) ENPP3×CD3; ScFv version of NPP3B815
B3: NPP3B56 (antibody, V domains shown)
VH: B2 VH
VL: B2 VL
notes: mAb from Ablexis Kappa mice
B4: NPP3B64 (antibody, V domains shown)
VH: QVQLVQSGAEVKKPGASVKVSCKASGYTFTTYYIHWVRQAPGQGLEWMGIINPSGGSTNYAQKFQGRVTMTRDTSTRIVYMELGSLRSEDTAVYYCARDYYYYYYGMDVWGQGTTVTVSS
VL: DIVMTQSPLSLPVTLGQPASISCRSSQSLVRNGGYTYLNWLQQRPGQPPRLLIYQISNRFSGVPDRFSGSGAGTDFTLTISRVEAEDVGVYYCMQATQFPHTFGQGTKLEIK
notes: mAb from Ablexis Kappa mice
B5: NPP3B98 (antibody, V domains shown)
VH: QVQLQESGPGLVKPSETLSLTCTVSGGSISNYYWSWIRQPAGKGLEWIGRIYASGSTNYNPSLKSRVTMSVDTSKNQFSLRLRSVTATDTAVYYCAREGYSSTLYDNAFDFWGQGTMVTVSS
VL: DIQMTQSPSSVSASVGGRVTITCRASQGISTWLAWYQQKPGKAPKLLIYAASSLQSGVPSRFSGSGSGTDFTLTISSLQPEDFATYYCQQANSFPLTFGGGTKVEIK
notes: mAb from Ablexis Kappa mice
B6: NPP3B60 (antibody, V domains shown)
VH: QVQLVQSGAEVKKPGESLKISCKGSGYGFTNYWIGWVRQMPGKGLEWMGIIYPSDSNTRYSPSFQGQVTISADKSINTAYLQWSSLKASDTAMYYCTRQNYYYYTMDVWGQGTTVTVSS
VL: DIQMTQSPSFLSASVGDRVTITCRASQVIRSYLAWYQQKPGKAPKLLIYGASTLQSGFPSRFSGSGSGTEFTLTISSLQPEDFATYYCQQLNSYPRTFGQGTKVEIK
notes: mAb from Ablexis Kappa mice
B7: NPP3B107 (antibody, V domains shown)
VH: EVQLVESGGGLVKPGGSLRLSCAASGFIFSDYSMNWVRQAPGKGLEWVSSISSGSSYIYYADSLKGRFTISRDNAKNSLYLQMSSLRAEDTAVYYCVRGLDYFDYWGQGALVTVSS
VL: B6 VL with V28D, R30S, S31N, K42R, G50V, F58V
notes: mAb from Ablexis Kappa mice
B8: NPP3B100 (antibody, V domains shown)
VH: QVQLQESGPGLVKTSETLSLTCTVSGGSISSHYWSWIRQPPGKGLEWIGNIFYSGSTNYNPSLKSRVTMSVDTSKNHFSLKLISVTTADTAIYYCARHDHVWFDPWGQGTLVTVSS
VL: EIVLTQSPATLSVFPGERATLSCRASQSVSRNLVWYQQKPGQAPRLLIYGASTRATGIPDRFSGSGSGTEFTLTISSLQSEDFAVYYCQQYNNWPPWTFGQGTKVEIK
notes: mAb from Ablexis Kappa mice

Experiments:
[1] = molecular target: T1, cynomolgus monkey ENPP3; assay: binding affinity to cyno ENPP3; method not stated; biphasic
[2] = molecular target: T2, human ENPP3; assay: binding affinity to human ENPP3; method not stated
[3] = molecular target: ENPP2 on CHOK1 cells (UniProt Q13822 36-863); assay: flow cytometry on CHO cells overexpressing ENPP2
[4] = molecular target: T3, human ENPP3 on cells; assay: flow cytometry on CHO cells overexpressing ENPP3
Description: To evaluate the specificity of binders to ENPP3 compared to other ENPP family members, cell binding was assessed on CHOK1 cells overexpressing ENPP1, ENPP2, or ENPP3 (FIG. 9).

[5] = molecular target: T4, ENPP1 on CHOK1 cells; assay: flow cytometry on CHO cells overexpressing ENPP1

Row | Binder | Kd [1] | Kd [2] | binding result [3] | EC50 (read off the curve) [4] | binding result [5]
1 | B1 | ~5 nM | 0.245 nM | – | – | –
2 | B2 | – | – | no binding (tested: Log(ug/mL) about 1.1 (about 12 ug/mL)) | ~0.5 µg/mL | no binding (tested: Log(ug/mL) about 1.1 (about 12 ug/mL))
3 | B3 | ~2 nM | 0.215 nM | – | – | –
4 | B4 | ~2 nM | 0.536 nM | – | – | –
5 | B5 | ~1 nM | 0.129 nM | – | – | –
6 | B6 | ~1 nM | 0.448 nM | – | – | –
7 | B7 | ~20 nM | 0.133 nM | – | – | –
8 | B8 | – | 0.0977 nM | – | – | –

Reference: US20250163182A1 (Janssen / Centocor, published 2025)
